Experimental data published in article PMC5473869.
Values belong to the molecule of their own block, whether it stands above or below them.

Columns and labels:
[1] = molecular target: HDAC7 catalytic domain (residues 449–952), wild type, purified (human) (UniProt Q8WUI4); test: ITC; ITC200, HDAC7 50 µM in the cell, SMRT(1255–1452) wild type or alanine mutants 300 µM injected; 50 mM KH2PO4/K2HPO4 pH 6.5, 100 mM KCl, 1 mM DTT, 1 mM β-ME; 25 °C; hampered by precipitation of HDAC7
[2] = molecular target: HDAC7 catalytic domain (residues 449–952) (human) (UniProt Q8WUI4); test: ITC; HDAC7 at 50 µM in the cell, 25 °C; 26 injections of 1.5 µl of SMRT(1255–1452) wild type or alanine mutant at 300 µM; 50 mM KH2PO4/K2HPO4 pH 6.5, 100 mM KCl, 1 mM DTT, 1 mM β-ME; Kd values approximate (noise, aggregation of HDAC7)
[3] = molecular target: GST-SMRT (1358–1391) R1381A (human); test: pull-down; purified GST-peptide or GST control on glutathione sepharose beads, incubated 2 h at 4 °C with supernatant of an E. coli HDAC7 expression lysate; washes with PBS pH 7.3, 3 mM DTT, 0.05% Tween 20, 500 mM NaCl; anti-His western blot
[4] = molecular target: SMRT(1255-1452) (human) (UniProt Q9Y618); test: NMR titration; 15N-labelled SMRT(1255-1452) with 0.72, 2.2 and 3.8 molar equivalents of unlabelled wt-HDAC7; relative HSQC peak intensities fitted to a bimolecular binding equation; 25 °C, 50 mM potassium phosphate pH 6.5, 100 mM KCl, 1 mM DTT; rough estimates, HDAC7 precipitated
[5] = molecular target: SMRT(1255-1452) (human) (UniProt Q9Y618); test: MST; Monolith NT.115, SMRT(1255–1452) labelled with NT647, HDAC7 or HDAC7 C535A/H541A 20 nM to 20 µM; 25 mM Tris pH 8.0, 10 mM MgCl2, 150 mM KCl, 0.5% Tween-20; room temperature
[6] = molecular target: SMRT(1255-1452) (human) (UniProt Q9Y618); test: SPR; Biacore 3000, SMRT(1255–1452) amine-coupled to a CM5 chip (5500 RU), HDAC7 injected at 500 nM to 8 µM; 50 mM KH2PO4/K2HPO4 pH 6.5, 100 mM KCl, 1 mM DTT; two-step (three-state) model, overall apparent Kd
[7] = molecular target: SMRT(1255-1452) (human) (UniProt Q9Y618); test: NMR titration; 15N-1H HSQC of labelled SMRT(1255–1452) titrated with unlabeled HDAC7 (1:0.72, 1:2.2, 1:3.8) or mixed with HDAC7 C535A/H541A (40 µM:144 µM, 1:3.6); peak intensities; 50 mM potassium phosphate, 100 mM KCl, 1 mM DTT, pH 6.5, 25 °C

- Kd [1]: 14.1 µM
Molecule: SMRT(1255–1452) (from UniProt Q9Y618 1255-1452) (domain or fragment)

- fold reduction of affinity against wild-type SMRT(1255–1452) [1]: 4 fold
Molecule: SMRT(1255–1452) R1381A (from UniProt Q9Y618 1255-1452) (domain or fragment)

- Kd [2]: 19 µM
Molecule: SMRT(1255-1452) R1360A (from UniProt Q9Y618 1255-1452) (domain or fragment)

- Kd [2]: 7.5 µM
Molecule: SMRT(1255-1452) L1379A (from UniProt Q9Y618 1255-1452) (domain or fragment)

- Kd [2]: 28 µM
Molecule: SMRT(1255-1452) L1386A (from UniProt Q9Y618 1255-1452) (domain or fragment)

- Kd [2]: 43 µM
Molecule: SMRT(1255-1452) K1384A (from UniProt Q9Y618 1255-1452) (domain or fragment)

- Kd [2]: 37 µM
Molecule: SMRT(1255-1452) V1372A (from UniProt Q9Y618 1255-1452) (domain or fragment)

- Kd [2]: 34 µM
Molecule: SMRT(1255-1452) E1376A (from UniProt Q9Y618 1255-1452) (domain or fragment)

- Kd [2]: 55 µM
Molecule: SMRT(1255-1452) R1381A (from UniProt Q9Y618 1255-1452) (domain or fragment)

- fold reduction of binding against wild-type GST-SMRT (1358–1391) [3]: 4 fold
B1: HDAC7 (residues 449–952), wild type, hexahistidine-tagged, in E. coli expression lysate (domain or fragment)
chain: LLWEQQRLAGRLPRGSTGDTVLLPLAQGGHRPLSRAQSSPAAPASLSAPEPASQARVLSSSETPARTLPFTTGLIYDSVMLKHQCSCGDNSRHPEHAGRIQSIWSRLQERGLRSQCECLRGRKASLEELQSVHSERHVLLYGTNPLSRLKLDNGKLAGLLAQRMFVMLPCGGVGVDTDTIWNELHSSNAARWAAGSVTDLAFKVASRELKNGFAVVRPPGHHADHSTAMGFCFFNSVAIACRQLQQQSKASKILIVDWDVHHGNGTQQTFYQDPSVLYISLHRHDDGNFFPGSGAVDEVGAGSGEGFNVNVAWAGGLDPPMGDPEYLAAFRIVVMPIAREFSPDLVLVSAGFDAAEGHPAPLGGYHVSAKCFGYMTQQLMNLAGGAVVLALEGGHDLTAICDASEACVAALLGNRVDPLSEEGWKQKPNLNAIRSLEAVIRVHSKYWGCMQRLASCPDSWVPRVPGADKEEVEAVTALASLSVGILAEDRPSEQLVEEEEPMNL

- Kd [4]: 19 µM
B2: HDAC7 catalytic domain (residues 449–952) (domain or fragment)
chain: B1 chain

- Kd [5]: 2800 nM
- Kd [6]: 2100 nM
- Kd [7]: < 40 µM
B3: HDAC7 catalytic domain (residues 449–952), wild type, purified (domain or fragment)
chain: B1 chain
